In US20240132625A1:
Each block holds one substance with its values, some of them ahead of it.

Assays:
[1] = molecular target: HER2 ectodomain (biotinylated Her2/ERBB2, Sino Biological) (human) (UniProt P04626); assay: BLI, HER2 ectodomain on tip
[2] = molecular target: HER2 ectodomain (biotinylated Her2/ERBB2, Sino Biological) (human) (UniProt P04626); assay: BLI, HER2 ectodomain on tip; effective KD
[3] = molecular target: HER2 ectodomain (biotinylated Her2/ERBB2, Sino Biological) (human) (UniProt P04626); assay: BLI, HER2 ectodomain immobilized on the sensor tip, antibody in half dilution from 500 nM, 1:1 fit
[4] = molecular target: HER2 ectodomain (biotinylated Her2/ERBB2, Sino Biological) (human) (UniProt P04626); assay: BLI, […], antibody 3.1-[…], 1:1 fit
[5] = molecular target: HER2 ectodomain (biotinylated Her2/ERBB2, Sino Biological) (human) (UniProt P04626); assay: BLI, antigen on streptavidin tip; below the instrument's limit
[6] = molecular target: HER2 ectodomain (biotinylated Her2/ERBB2, Sino Biological) (human) (UniProt P04626); assay: BLI, antigen on streptavidin tip, 1:1 fit
[7] = molecular target: CD20 immobilized on a sensor tip (UniProt P11836); assay: BLI, CD20 on tip
[8] = molecular target: CD20 immobilized on a sensor tip (UniProt P11836); assay: BLI, human CD20 immobilized on the sensor tip, antibody in half dilution from 50 nM, 1:1 fit
[9] = molecular target: HER2 ectodomain (biotinylated Her2/ERBB2, Sino Biological) (human) (UniProt P04626); assay: BLI, HER2 ectodomain immobilized on the sensor tip, antibody in half dilution from 250 nM, 1:1 fit
[10] = molecular target: HER2 ectodomain (biotinylated Her2/ERBB2, Sino Biological) (human) (UniProt P04626); assay: BLI, […], antibody 6.25-50 nM, 1:1 fit
[11] = molecular target: Receptor-binding domain of the SARS-CoV-2 spike protein (biotinylated, Acrobio system) (SARS-CoV-2) (UniProt P0DTC2); assay: BLI, antigen on streptavidin tip
[12] = molecular target: Receptor-binding domain of the SARS-CoV-2 spike protein (biotinylated, Acrobio system) (SARS-CoV-2) (UniProt P0DTC2); assay: BLI, antigen on streptavidin tip; below the instrument's limit
[13] = molecular target: Receptor-binding domain of the SARS-CoV-2 spike protein (biotinylated, Acrobio system) (SARS-CoV-2) (UniProt P0DTC2); assay: BLI, antigen on streptavidin tip, 1:1 fit
CD20 on SU-DHL5 cells = CD20 on SU-DHL5 cells (UniProt P11836); assay: flow cytometry on SU-DHL5 cells, muGFP signal, 10 nM antibody
[14] = molecular target: CD20 immobilized on a sensor tip (UniProt P11836); assay: BLI, […], antibody 6.25-50.0 nM, 1:1 fit
[15] = molecular target: CD20 immobilized on a sensor tip (UniProt P11836); assay: BLI, CD20 on tip; effective KD

Substance: SLy1(254-316)^(H)-Trastuzumab(N30A/H91A/Y100A)/HetFc (antibody)
Kd [3]: 373 nM

Substance: Trastuzumab(N30A/H91A)-SDF-1α(8-67)^(H) (antibody)
kon [4]: 310000 M⁻¹ s⁻¹
Kd [5]: < 0.01 nM
kon [6]: 290000 M⁻¹ s⁻¹

Substance: Trastuzumab(N30A/H91A) (antibody)
Kd [6]: 2.1 nM
kon [6]: 190000 M⁻¹ s⁻¹

Substance: SLy1(254-316)^(H)-Trastuzumab(N30A/H91A/Y100A)/HetFc-SDF-1α(8-67)^(H) (antibody)
Kd [9]: 0.8 nM
koff [9]: 5.8e-05 s⁻¹
kon [9]: 71000 M⁻¹ s⁻¹
Kd [2]: < 0.8 nM

Substance: glCV30-SDF-1α(8-67)^(H) (antibody)
fold increase of binding avidity over glCV30 [11]: > 130 fold
Kd [12]: < 0.01 nM
kon [13]: 770000 M⁻¹ s⁻¹

Substance: SLy1(254-316)^(H)-Obinutuzumab(F101L)/HetFc-SDF-1α(8-67)^(H) labeled with muGFP at the C-terminus of the light chain (antibody)
percent bound to SU-DHL5 cells at 10 nM (CD20 on SU-DHL5 cells): 90%

Substance: SLy1(254-316)^(H)-Obinutuzumab(Y101L)/HetFc-SDF-1α(8-67)^(H) (antibody)
koff [14]: 2.3e-05 s⁻¹
kon [14]: 180000 M⁻¹ s⁻¹
Kd [15]: 0.13 nM

Second part, the substance after the results:

Kd [1]: 243 nM
Substance: Trastuzumab(N30A/H91A/Y100A) (antibody)

Kd [2]: < 0.01 nM
Substance: Trastuzumab(N30A/H91A)-HomoCC^(H) (antibody)

Kd [7]: 30.4 nM
koff [8]: 0.01 s⁻¹
kon [8]: 330000 M⁻¹ s⁻¹
Substance: Obinutuzumab(Y101L) (antibody)

koff [10]: < 1e-07 s⁻¹
kon [10]: 189000 M⁻¹ s⁻¹
Kd [2]: < 0.01 nM
Substance: Trastuzumab(N30A/H91A)-SDF-1α(8-67)^(L) (antibody)
